From patent US20190218308A1 (INNATE PHARMA, published 2019) come the findings set out here.

The target of experiment [1] is T1, CD39-M2 extracellular domain recombinant protein (soluble human CD39) (human, UniProt P49961 38-478).
T1 sequence: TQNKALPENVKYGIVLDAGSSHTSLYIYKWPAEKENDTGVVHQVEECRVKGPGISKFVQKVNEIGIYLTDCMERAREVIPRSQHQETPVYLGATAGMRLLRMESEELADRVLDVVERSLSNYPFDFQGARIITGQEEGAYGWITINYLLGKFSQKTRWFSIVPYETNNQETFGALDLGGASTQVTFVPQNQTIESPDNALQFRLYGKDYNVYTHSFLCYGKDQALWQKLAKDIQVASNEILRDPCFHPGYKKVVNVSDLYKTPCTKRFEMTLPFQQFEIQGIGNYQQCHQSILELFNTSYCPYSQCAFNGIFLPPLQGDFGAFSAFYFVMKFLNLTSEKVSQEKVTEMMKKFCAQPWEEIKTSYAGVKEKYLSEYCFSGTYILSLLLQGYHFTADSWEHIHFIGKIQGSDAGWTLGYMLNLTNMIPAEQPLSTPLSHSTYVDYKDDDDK
As to the kind of experiment: cell-based or functional assay.

The target of experiment [2] is T2, human CD39 (NTPDase1, ENTPD1), membrane-bound, on cells (human, UniProt P49961 1-510).
T2 sequence: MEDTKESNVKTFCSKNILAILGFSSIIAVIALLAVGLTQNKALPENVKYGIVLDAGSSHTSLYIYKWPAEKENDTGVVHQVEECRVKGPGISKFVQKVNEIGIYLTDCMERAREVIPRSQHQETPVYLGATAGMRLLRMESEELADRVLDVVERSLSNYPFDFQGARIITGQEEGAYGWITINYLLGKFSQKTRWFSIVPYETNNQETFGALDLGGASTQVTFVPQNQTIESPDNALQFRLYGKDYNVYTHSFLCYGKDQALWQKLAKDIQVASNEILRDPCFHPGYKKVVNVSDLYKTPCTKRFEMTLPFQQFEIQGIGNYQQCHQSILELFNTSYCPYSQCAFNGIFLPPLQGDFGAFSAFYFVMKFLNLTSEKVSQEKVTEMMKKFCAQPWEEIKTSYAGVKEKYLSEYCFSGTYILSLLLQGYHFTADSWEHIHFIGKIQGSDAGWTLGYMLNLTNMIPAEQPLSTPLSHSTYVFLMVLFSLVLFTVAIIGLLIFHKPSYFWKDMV
As to the kind of experiment: cell-based or functional assay.

For experiment [3], the target named is T3, Human CD39-L4, also known as NTPDase5 or ENTPD5 (human, UniProt O75356 25-428).
T3 construct: Recombinant protein coated in ELISA
T3 sequence: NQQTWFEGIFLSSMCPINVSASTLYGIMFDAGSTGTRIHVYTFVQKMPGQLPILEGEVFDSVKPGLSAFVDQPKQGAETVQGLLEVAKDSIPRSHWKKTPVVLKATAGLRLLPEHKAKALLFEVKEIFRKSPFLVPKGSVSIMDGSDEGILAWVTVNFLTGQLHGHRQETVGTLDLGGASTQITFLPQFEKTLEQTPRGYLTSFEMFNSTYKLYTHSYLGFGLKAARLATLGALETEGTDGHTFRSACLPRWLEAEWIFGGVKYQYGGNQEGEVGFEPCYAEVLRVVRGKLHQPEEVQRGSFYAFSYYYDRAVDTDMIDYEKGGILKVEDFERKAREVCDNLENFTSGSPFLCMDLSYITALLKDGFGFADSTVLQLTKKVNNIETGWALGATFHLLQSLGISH
In words: ELISA on coated recombinant human CD39-L4 (panel huCD39 L4). The procedure: Wells were washed in TBS Tween 20, and further saturated 2H at RT in TBS Blocking buffer. Dose range concentration of primary antibody was incubated in TBS blocking buffer for 2 h at RT. Wells were washed in TBS Tween 20. […] Optical density was measured on Enspire™ at OD=450.

Experiment [4] has as its target T4, CD39 mutant 5 (human, UniProt P49961 1-510).
T4 construct: Expressed on Hek-293T cells; also called M5
T4 chain: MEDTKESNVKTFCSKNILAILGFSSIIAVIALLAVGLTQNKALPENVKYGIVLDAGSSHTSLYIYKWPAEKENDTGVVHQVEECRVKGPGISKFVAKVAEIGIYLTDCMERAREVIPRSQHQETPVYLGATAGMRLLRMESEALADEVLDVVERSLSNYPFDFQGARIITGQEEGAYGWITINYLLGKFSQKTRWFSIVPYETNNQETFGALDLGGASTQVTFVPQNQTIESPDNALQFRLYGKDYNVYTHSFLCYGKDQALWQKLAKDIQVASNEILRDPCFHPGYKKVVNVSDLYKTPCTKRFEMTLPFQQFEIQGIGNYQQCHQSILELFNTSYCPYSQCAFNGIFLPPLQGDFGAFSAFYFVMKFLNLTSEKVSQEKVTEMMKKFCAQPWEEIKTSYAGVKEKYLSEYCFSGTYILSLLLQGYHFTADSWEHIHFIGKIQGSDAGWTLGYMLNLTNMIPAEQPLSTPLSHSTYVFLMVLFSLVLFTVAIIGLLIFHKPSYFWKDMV
As to the kind of experiment: flow cytometry, Hek-293T cells transfected with CD39 mutant 5 (panel M5), Comp-Alexa Fluor 647-A. The procedure: (§1) Mutants were transfected in Hek-293T cells, as shown in the table 1, using numbering of SEQ ID NO: 2. […] Mutant 19 includes substitutions at residues R138, M139 and E142.
(§2) Mutants were transfected in Hek-293T cells, as shown in the table 1, using numbering of SEQ ID NO: 2. Dose-ranges of test antibodies (10-2.5-0.625-0.1563-0.0391-0.0098-0.0024-0.0006 μg/ml) are tested on the 20 generated mutants by flow cytometry.
A general note: In flow cytometry, cells or beads pass a laser one at a time.

Experiment [5] addresses T5, CD39 mutant 19 (human, UniProt P49961 1-510).
T5 construct: Expressed on Hek-293T cells; also called M19
T5 chain: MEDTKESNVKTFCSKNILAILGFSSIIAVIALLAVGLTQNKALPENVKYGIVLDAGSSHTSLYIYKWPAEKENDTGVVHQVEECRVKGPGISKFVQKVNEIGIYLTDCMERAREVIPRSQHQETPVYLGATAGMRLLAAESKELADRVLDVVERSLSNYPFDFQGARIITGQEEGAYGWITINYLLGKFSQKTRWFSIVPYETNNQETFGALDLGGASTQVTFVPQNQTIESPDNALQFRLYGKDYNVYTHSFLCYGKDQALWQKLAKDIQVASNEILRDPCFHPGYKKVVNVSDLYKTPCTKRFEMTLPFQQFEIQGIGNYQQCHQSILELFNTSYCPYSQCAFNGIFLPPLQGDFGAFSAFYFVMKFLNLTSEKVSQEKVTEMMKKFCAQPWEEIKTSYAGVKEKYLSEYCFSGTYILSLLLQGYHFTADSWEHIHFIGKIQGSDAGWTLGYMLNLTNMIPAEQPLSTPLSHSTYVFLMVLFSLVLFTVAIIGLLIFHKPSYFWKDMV
As to the kind of experiment: flow cytometry, Hek-293T cells transfected with CD39 mutant 19 (panel M19); antibody concentration not shown. The procedure:
as §1, §2

B1: antibody I-394 (antibody, human IgG1, kappa, V domains shown)
VH: EVQLQQSGPELVKPGASVKMSCKASGYTFTDYNMHWVKQSHGRTLEWIGYIVPLNGGSTFNQKFKGRATLTVNTSSRTAYMELRSLTSEDSAAYYCARGGTRFAYWGQGTLVTVSA
VL: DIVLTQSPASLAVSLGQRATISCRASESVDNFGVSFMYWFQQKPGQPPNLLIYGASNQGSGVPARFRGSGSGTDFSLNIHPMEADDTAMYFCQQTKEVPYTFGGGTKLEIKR
B1: in experiment [1], the “IC50, inhibition of the ATPase activity of soluble CD39 protein” value came to 0.003 µg/mL. In addition, the “IC50 (inhibition of 50% of the enzymatic activity of CD39 expressed by 50,000 Ramos cells)” value in experiment [2] was 0.05 µg/mL. Also, the binding result is “no binding (tested: about 50 µg/ml)” in experiment [3], “binds” in experiment [4] and “no binding” in experiment [5].
